T1: dihydrolipoyl transacetylase (E2p) core of E. coli PDHc (Escherichia coli, UniProt P06959)
T1 construct: gene aceF; native full-length E2p in native PDHc; catalytic domain modelled from P384 plus one lipoyl domain (averaged, modelled as innermost, K245); octahedral 24-mer
T1 sequence (P06959 2-630): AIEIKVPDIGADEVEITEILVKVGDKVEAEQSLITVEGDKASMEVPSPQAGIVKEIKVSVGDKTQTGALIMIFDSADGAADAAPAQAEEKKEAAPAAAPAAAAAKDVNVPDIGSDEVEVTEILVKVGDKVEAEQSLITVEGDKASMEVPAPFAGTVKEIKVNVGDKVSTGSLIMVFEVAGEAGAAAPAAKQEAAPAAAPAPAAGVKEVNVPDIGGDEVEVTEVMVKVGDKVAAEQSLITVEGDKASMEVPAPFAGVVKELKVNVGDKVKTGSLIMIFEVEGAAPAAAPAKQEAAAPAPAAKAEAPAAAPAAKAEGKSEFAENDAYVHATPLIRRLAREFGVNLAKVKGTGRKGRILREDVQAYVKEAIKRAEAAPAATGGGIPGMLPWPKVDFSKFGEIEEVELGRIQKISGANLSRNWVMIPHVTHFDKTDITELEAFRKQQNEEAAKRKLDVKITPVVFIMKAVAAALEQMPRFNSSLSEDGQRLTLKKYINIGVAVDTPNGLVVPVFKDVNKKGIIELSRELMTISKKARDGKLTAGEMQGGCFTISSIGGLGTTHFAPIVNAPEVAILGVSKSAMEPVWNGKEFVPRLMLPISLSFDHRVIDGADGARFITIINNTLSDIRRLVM

B1: dihydrolipoyl transacetylase (E2p) of the E. coli pyruvate dehydrogenase complex (enzyme, E. coli K12, UniProt P06959 1-630, looked up)
chain: MAIEIKVPDIGADEVEITEILVKVGDKVEAEQSLITVEGDKASMEVPSPQAGIVKEIKVSVGDKTQTGALIMIFDSADGAADAAPAQAEEKKEAAPAAAPAAAAAKDVNVPDIGSDEVEVTEILVKVGDKVEAEQSLITVEGDKASMEVPAPFAGTVKEIKVNVGDKVSTGSLIMVFEVAGEAGAAAPAAKQEAAPAAAPAPAAGVKEVNVPDIGGDEVEVTEVMVKVGDKVAAEQSLITVEGDKASMEVPAPFAGVVKELKVNVGDKVKTGSLIMIFEVEGAAPAAAPAKQEAAAPAPAAKAEAPAAAPAAKAEGKSEFAENDAYVHATPLIRRLAREFGVNLAKVKGTGRKGRILREDVQAYVKEAIKRAEAAPAATGGGIPGMLPWPKVDFSKFGEIEEVELGRIQKISGANLSRNWVMIPHVTHFDKTDITELEAFRKQQNEEAAKRKLDVKITPVVFIMKAVAAALEQMPRFNSSLSEDGQRLTLKKYINIGVAVDTPNGLVVPVFKDVNKKGIIELSRELMTISKKARDGKLTAGEMQGGCFTISSIGGLGTTHFAPIVNAPEVAILGVSKSAMEPVWNGKEFVPRLMLPISLSFDHRVIDGADGARFITIINNTLSDIRRLVM
modifications: lipoylated residues K41, K144 and K245 (mass spectrometry); dihydrolipoyllysine modelled at K245 in the structure
notes: dihydrolipoyl transacetylase (E2p), aceF gene, E. coli strain K12; native full-length protein, modelled catalytic domain starts at P384; It was modelled as the innermost one (K245), from PDB 1qjo; also called dihydrolipoyl acyltransferase; E2p core; source: endogenous, E. coli K12; copies: 24
B2: dihydrolipoyl dehydrogenase (E3) of the E. coli pyruvate dehydrogenase complex (enzyme, E. coli K12 (endogenous), UniProt P0A9P0 1-474, looked up)
chain: MSTEIKTQVVVLGAGPAGYSAAFRCADLGLETVIVERYNTLGGVCLNVGCIPSKALLHVAKVIEEAKALAEHGIVFGEPKTDIDKIRTWKEKVINQLTGGLAGMAKGRKVKVVNGLGKFTGANTLEVEGENGKTVINFDNAIIAAGSRPIQLPFIPHEDPRIWDSTDALELKEVPERLLVMGGGIIGLEMGTVYHALGSQIDVVEMFDQVIPAADKDIVKVFTKRISKKFNLMLETKVTAVEAKEDGIYVTMEGKKAPAEPQRYDAVLVAIGRVPNGKNLDAGKAGVEVDDRGFIRVDKQLRTNVPHIFAIGDIVGQPMLAHKGVHEGHVAAEVIAGKKHYFDPKVIPSIAYTEPEVAWVGLTEKEAKEKGISYETATFPWAASGRAIASDCADGMTKLIFDKESHRVIGGAIVGTNGGELLGEIGLAIEMGCDAEDIALTIHAHPTLHESVGLAAEVFEGSITDLPNPKAKKK
notes: dihydrolipoyl dehydrogenase (E3), E. coli K12, endogenous subunit of the native PDHc; source: endogenous, E. coli K12

Assays:
[1] = target: T1, dihydrolipoyl transacetylase (E2p) core of E. coli PDHc; test: cryo-EM structure, […] A; format: binding; conditions: covalent: moiety attached by amide bond to K245 of the lipoyl domain of the same protein (dihydrolipoyllysine), not the free amide; bound in E2p active site channel; no CoA; reduced state modelled, ox
[2] = target: the molecule itself; test: cryo-EM structure; native E2p core of PDHc isolated from E. coli K12, resting state without substrates; 20 mM Hepes pH 7.5, 150 mM NaCl; O symmetry imposed, 3.16 Å
[3] = target: T2, pyruvate dehydrogenase (E1p) of the E. coli pyruvate dehydrogenase complex (E. coli K12 (endogenous), UniProt P0AFG8 1-887); test: cryo-EM structure; whole native PDHc (approx. 4.5 MDa) isolated from E. coli K12; low-resolution reconstruction without symmetry; 2D classes of the outer shell after subtraction of the E2p core; conditions: both partners purified
T2 construct: pyruvate dehydrogenase E1 component (E1p), E. coli K12, endogenous subunit of the native PDHc; source: endogenous, E. coli K12

[4] = target: B1; test: as above; conditions: both partners purified

T2 sequence (P0AFG8 whole entry, one chain of several): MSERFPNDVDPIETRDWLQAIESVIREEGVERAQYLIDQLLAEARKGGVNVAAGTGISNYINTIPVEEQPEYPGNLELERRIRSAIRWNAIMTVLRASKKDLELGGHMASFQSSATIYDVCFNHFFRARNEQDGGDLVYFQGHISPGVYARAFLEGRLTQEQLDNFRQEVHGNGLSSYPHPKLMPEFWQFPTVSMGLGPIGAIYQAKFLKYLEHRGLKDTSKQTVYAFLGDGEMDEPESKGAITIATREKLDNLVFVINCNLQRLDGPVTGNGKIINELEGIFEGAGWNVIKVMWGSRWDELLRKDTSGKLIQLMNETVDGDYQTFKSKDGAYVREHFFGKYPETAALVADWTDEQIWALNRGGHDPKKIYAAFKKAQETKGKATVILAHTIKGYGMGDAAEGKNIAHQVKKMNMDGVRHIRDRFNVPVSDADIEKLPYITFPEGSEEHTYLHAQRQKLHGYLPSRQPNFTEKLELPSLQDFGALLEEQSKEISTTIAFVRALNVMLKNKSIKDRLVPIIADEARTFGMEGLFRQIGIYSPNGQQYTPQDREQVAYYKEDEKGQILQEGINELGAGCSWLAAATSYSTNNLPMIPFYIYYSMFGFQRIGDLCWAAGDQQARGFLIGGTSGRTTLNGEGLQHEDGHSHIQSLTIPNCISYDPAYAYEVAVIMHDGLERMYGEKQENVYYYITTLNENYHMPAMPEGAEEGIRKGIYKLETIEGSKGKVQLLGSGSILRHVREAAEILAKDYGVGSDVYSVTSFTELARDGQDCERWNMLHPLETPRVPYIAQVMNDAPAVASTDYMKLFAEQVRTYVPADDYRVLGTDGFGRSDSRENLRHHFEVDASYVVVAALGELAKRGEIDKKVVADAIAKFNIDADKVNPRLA

Molecule: NC(=O)CCCC[C@@H](S)CCS [dihydrolipoamide]
- cryo-EM structure, 3.16 A [1]: we modeled the prosthetic group as dihydrolipoamide, i.e., the product of the E2p-catalyzed reaction

Molecule: B1
- stoichiometry N [2]: 24
- binding result [3]: binds

Molecule: B2
- binding result [4]: binds

— publication PMC8421416, “Structure of the native pyruvate dehydrogenase complex reveals the mechanism of substrate insertion” (Nature Communications, 2021)
